Measurements published in paper doi:10.1101/2024.01.05.574393 (bioRxiv, 2024).
Changes are numbered by the printed parent chain. Names may count otherwise.

B1: FLNCd24 (domain 24 of filamin C, residues 2630-2724), wild type (domain or fragment)
chain: GSKFSSDASKVVTRGPGLSQAFVGQKNSFTVDCSKAGTNMMMVGVHGPKTPCEEVYVKHMGNRVYNVTYTVKEKGDYILIVKWGDESVPGSPFKVKV
B2: FLNCd24 T2677D (phospho-mimic, residues 2630-2724) (domain or fragment)
chain: B1 chain with T50D
B3: FLNCd24 Y2683E (phospho-mimic, residues 2630-2724) (domain or fragment)
chain: B1 chain with Y56E
B4: HSPB7ACD C131S (residues 78-162 of isoform 2) (domain or fragment)
chain: not shown

Columns and labels:
[1] = target: HSPB7ΔN (residues 78-175 of isoform 2) (human, UniProt Q9UBY9-2 78-175); assay: native MS
[2] = target: the molecule itself; assay: native MS
[3] = target: the molecule itself; assay: native MS; remark: listed apart in the source
[4] = target: B1; assay: crystal structure

| Binder | Kd [1] [nM] | stoichiometry N [2] | Kd [3] [nM] | binding result [4] |
| --- | --- | --- | --- | --- |
| B1 | 6.7 ± 1.4 | 2 | 75.9 ± 8.4 | – |
| B2 | – | – | 8.5 ± 1 | – |
| B3 | – | – | 4050 ± 557 | – |
| B4 | – | – | – | binds |
